Laboratory results from publication PMC3689669.

Columns and labels:
[1] = biological target: Canine fibrinogen (canine) (UniProt P68213); test: SPR; BIAcore X, 25°C; ligand covalently immobilised on CM5 chip; SpsD passed over in increasing concentrations without regeneration, 5 µl/min, PBS with 0.005% Tween 20; KD from equilibrium response against concentration
[2] = biological target: Human plasma fibronectin (human); test: as above
[3] = biological target: α-elastin, a heterogeneous mixture of soluble peptides obtained from human lung (human); test: as above
Human fibrinogen (human) = Human fibrinogen (human) (UniProt P02671); test: as above
Chain of Human fibrinogen (human) (P02671 other isoform, or with tags, fused parts or gaps, chain 1 of 3): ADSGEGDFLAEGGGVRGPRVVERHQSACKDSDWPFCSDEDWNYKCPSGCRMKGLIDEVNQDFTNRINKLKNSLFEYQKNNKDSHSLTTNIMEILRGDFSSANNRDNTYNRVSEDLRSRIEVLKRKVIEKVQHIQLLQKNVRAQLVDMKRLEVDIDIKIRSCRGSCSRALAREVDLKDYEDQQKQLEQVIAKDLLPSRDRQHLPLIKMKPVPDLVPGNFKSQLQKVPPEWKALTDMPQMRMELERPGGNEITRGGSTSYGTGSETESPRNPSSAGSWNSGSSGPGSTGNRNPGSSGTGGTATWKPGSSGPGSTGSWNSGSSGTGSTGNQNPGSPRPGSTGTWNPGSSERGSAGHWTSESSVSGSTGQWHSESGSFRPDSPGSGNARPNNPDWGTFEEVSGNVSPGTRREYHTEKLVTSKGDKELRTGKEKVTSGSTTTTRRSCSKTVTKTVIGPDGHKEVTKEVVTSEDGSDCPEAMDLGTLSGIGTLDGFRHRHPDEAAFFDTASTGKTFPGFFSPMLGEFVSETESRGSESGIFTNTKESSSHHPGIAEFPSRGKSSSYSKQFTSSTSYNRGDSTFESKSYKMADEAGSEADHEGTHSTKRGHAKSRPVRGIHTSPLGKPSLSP
Chain of Human fibrinogen (human) (P02675 31-491, chain 2 of 3, further chain): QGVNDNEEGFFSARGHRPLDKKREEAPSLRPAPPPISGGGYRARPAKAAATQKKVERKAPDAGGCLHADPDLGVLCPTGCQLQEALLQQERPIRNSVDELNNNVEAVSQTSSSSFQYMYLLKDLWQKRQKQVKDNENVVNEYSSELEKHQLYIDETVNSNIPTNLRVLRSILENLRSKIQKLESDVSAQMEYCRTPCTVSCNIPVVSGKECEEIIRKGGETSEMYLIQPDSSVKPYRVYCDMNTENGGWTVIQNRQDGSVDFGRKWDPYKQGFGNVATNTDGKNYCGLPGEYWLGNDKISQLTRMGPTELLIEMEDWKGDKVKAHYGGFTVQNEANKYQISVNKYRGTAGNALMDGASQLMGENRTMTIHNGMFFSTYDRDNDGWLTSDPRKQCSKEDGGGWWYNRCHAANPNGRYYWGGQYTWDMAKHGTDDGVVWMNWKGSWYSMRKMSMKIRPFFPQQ
Chain of Human fibrinogen (human) (P02679 other isoform, or with tags, fused parts or gaps, chain 3 of 3, further chain): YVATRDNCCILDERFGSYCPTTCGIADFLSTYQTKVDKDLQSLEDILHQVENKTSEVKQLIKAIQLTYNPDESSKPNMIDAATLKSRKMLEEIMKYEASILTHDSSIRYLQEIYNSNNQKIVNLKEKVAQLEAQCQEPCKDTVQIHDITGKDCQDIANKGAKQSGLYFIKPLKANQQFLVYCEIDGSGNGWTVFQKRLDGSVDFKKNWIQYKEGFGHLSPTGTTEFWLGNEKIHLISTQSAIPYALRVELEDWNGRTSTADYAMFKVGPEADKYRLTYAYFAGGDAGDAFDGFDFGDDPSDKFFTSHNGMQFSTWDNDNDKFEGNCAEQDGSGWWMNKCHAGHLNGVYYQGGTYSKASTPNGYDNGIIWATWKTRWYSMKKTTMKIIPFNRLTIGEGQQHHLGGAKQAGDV

[4] = biological target: GST-HK10_(544–563), GST fusion of the human K10 C-terminal tail region (UniProt P13645); test: SPR; BIAcore X, 25°C; GST-HK10(544–563) (500 nM) captured on immobilised goat anti-GST IgG, GST alone on the reference cell; SpsD passed over in increasing concentrations, 5 µl/min; KD from equilibrium response
Chain of GST-HK10_(544–563), GST fusion of the human K10 C-terminal tail region (P13645 544-563): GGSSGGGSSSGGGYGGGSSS

[5] = biological target: GST-Fbgγ_(395–411), GST fusion of the human Fbg γ-chain sequence (human) (UniProt P02679); test: ELISA; GST-Fbg γ chain or GST coated on microtiter wells; increasing concentrations of SpsD167–519; detected with anti-6-His IgG
[6] = biological target: N-terminal fragment of fibronectin (N29) containing the five N-terminal type I modules (human); test: ELISA; Fn (1 µg/well) and Fn fragments (250 ng/well) coated; SpsD167–519 in solution, detected with anti-SpsD37–519 antibody; FnBPB163–480 as control, detected with anti-FnBPB163–480 IgG
[7] = biological target: Recombinant fibronectin fragment, residues 1266–1908 (extra domain B plus type III modules 8–13 and the initial region of module 14) (UniProt P02751); test: as above
Chain of Recombinant fibronectin fragment, residues 1266–1908 (extra domain B plus type III modules 8–13 and the initial region of module 14) (P02751 1266-1908): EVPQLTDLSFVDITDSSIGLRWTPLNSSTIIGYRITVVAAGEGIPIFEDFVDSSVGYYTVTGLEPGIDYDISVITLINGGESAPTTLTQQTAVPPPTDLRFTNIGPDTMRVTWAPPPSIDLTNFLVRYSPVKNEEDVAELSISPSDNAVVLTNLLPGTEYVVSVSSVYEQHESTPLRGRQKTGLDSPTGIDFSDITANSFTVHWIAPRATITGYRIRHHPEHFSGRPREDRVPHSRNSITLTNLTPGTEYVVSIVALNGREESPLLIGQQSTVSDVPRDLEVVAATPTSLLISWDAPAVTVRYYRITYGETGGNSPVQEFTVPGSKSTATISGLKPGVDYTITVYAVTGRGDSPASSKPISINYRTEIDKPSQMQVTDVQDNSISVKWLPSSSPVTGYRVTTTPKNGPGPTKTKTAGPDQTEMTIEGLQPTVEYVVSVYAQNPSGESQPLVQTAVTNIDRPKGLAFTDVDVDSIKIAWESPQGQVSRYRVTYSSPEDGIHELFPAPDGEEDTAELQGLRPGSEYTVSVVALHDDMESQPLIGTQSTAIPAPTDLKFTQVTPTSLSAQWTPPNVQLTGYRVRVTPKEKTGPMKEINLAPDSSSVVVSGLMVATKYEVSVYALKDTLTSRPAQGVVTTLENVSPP

[8] = biological target: Mouse cytokeratin 10 (residues 1–570) (mouse) (UniProt P02535); test: ELISA; mouse K10 proteins, GST-HK10(544–563) or GST coated on wells; increasing concentrations of SpsD167–519; detected with anti-SpsD37–519 IgG
Chain of Mouse cytokeratin 10 (residues 1–570) (mouse) (P02535 whole entry, the tested form may be a part): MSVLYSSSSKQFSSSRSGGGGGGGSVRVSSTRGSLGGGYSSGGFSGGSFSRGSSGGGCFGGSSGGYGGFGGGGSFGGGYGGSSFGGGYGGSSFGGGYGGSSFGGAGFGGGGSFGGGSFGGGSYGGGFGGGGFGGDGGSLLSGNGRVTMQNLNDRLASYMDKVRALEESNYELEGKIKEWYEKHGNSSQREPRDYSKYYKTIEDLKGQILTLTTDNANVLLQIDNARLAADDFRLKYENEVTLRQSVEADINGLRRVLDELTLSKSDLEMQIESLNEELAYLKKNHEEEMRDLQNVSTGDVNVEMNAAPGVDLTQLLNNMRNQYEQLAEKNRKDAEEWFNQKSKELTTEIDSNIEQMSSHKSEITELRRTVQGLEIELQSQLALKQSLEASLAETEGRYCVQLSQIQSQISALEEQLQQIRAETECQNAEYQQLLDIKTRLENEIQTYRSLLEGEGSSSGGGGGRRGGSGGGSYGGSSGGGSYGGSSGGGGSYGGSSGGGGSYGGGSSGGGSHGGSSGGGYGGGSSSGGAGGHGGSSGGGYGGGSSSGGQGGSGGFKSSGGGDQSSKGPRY

[9] = biological target: Mouse cytokeratin 10 C-terminal tail region (MK10_(454–570)) (mouse) (UniProt P02535); test: as above
Chain of Mouse cytokeratin 10 C-terminal tail region (MK10_(454–570)) (mouse) (P02535 454-570): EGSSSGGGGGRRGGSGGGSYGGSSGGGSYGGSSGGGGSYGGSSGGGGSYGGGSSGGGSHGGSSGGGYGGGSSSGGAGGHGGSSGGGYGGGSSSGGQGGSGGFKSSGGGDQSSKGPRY

[10] = biological target: Human fibrinogen, P02671-2;P02675;P02679-2; test: ELISA; conditions: value read at the highest concentration, 16 µM protein added; immobilized human Fbg coated in bicarbonate buffer overnight; parent: est. 1.5; read off a plot
Human plasma fibronectin = test: ELISA; conditions: value read at the highest concentration, 20 µM protein added; immobilized Fn coated in bicarbonate buffer overnight; parent: est. 1.7; read off a plot
[11] = biological target: α-elastin, a heterogeneous mixture of soluble peptides obtained from human lung; test: ELISA; conditions: value read at the highest concentration, 20 µM protein added; immobilized α-elastin coated in bicarbonate buffer overnight; parent: est. 1.8; read off a plot
[12] = biological target: GST-HK10_(544–563), GST fusion of the human K10 C-terminal tail region (UniProt P13645); test: ELISA; conditions: value read at the highest concentration, 20 µM protein added; immobilized K10 (panel title GST-HK10 544-563) coated in bicarbonate buffer overnight; parent: est. 1.2; read off a plot

Substance | Kd [1] [nM] | Kd [2] [nM] | Kd [3] [nM] | Kd (Human fibrinogen (human)) [nM] | Kd [4] [nM] | EC50 [5] [nM] | EC50 [6] [nM] | EC50 [7] [nM] | EC50 [8] [nM] | EC50 [9] [nM] | response [10] [A490] | response (Human plasma fibronectin) [A490] | response [11] [A490] | response [12] [A490]
SpsD_(167–519), N2N3 subdomains of the A domain of SpsD from S. pseudintermedius strain 326 (domain or fragment) | 341 | 2160 | 1020 | 360 | 840 | 320 | 2210 | 1970 | 1020 | 1200 |  |  |  | 
SpsD_(167–519), N2N3 subdomains of the A domain of SpsD from S. pseudintermedius strain 326 F288A |  |  |  |  |  |  |  |  |  |  | 0.11 | 1.6 | 0.67 | 0.97
SpsD_(37–519), A domain (N1N2N3 region) of SpsD from S. pseudintermedius strain 326 (domain or fragment) | 367 | 2350 | 1200 | 380 | 906 |  |  |  |  |  |  |  |  | 
